The text below walks through data of the RNAGym collection of RNA variant scans (doi:10.1073/pnas.2313332121).

Fewer inactive variants are shown than the library holds. Bounds are passed on as bounds.

B1: TPR 5TU (parent)
chain: GGAUCUUCUCGAUCUAACAAAAAAGACAAAUCUGCCACAAAGCUUGAGAGCAUCUUCGGAUGCAGAGGCGGCAGCCUUCGGUGGCGCGAUAGCGCCAACGUUCUCAACUAUGACACGCAAAACGCGUGCUCCGUUGAAUGGAGUUUAUCAUG

In this data set the parent is B1. Nature of the data set: polymerase ribozyme fitness, log enrichment relative to wild type (log ratio); higher = more active; in vitro selection for triplet polymerase activity. The method, boiled down:
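To select mutant libraries of each subunit of a heterodimeric triplet polymerase ribozyme, built by PCR and transcribed, each was annealed with a biotinylated primer, partner subunit and triplets, then incubated frozen at −7 °C. Extended constructs were gel-excised, captured on streptavidin beads and amplified by RT-PCR, in one round carried out in triplicate. Illumina sequencing of input and output libraries kept genotypes with ≥10 input reads and ≥1 read per output. Fitness is the base-2 logarithm of genotype enrichment relative to wild-type enrichment, from inverse-variance-weighted replicate averages.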
Regarding GGAUCUUCUCGAUCUCACAAAAAAGACAAAUCUGCCACAAAGCUUGAGAGCAUCUUCGGAUGCAGAGGCGGCAGCCUUCGGUGGCUCGAUAGCGCCAACGUUCUCAACUAUGACACGCAAAACGCGUGCUCCGUUGAAUGGAGUUUAUCAUG [A16C G86U], the “polymerase ribozyme fitness (log ratio)” value is -2.65.
As for GGAUCUUCUCGAUCUAACAAAAAAGACAAAUCUGCCACAAAGCUUGAGAGCAUCUUCGGAUGCAGAGGCGGCAGCAUUCGGUGGCGCGAUAGCGCCGACGUUCUCAACUAUGACACGCAAAACGCGUGCUCCGUUGAAUGGAGUUUAUCAUG [C76A A97G], the figure is -1.4.
As for GGAUCUUCUCGAUCUAACAAAAAAGACAAAUCUGCCACAAAGCUUGAGAGCAUGUUCGGAUGCAGAGGCGGCAGCCUUCGGUGGCGCGAUAGCGCUAGCGUUCUCAACUAUGACACGCAAAACGCGUGCUCCGUUGAAUGGAGUUUAUCAUG [C54G C96U A98G], the figure is -1.19; as for GGAUCUUCUCGAUCUAACAAAAAUGACAAGUCUGCCACAAAGCUUGAGAGCAUCUUCGGAUGCGGAGGCGGCAGCCUUCGGUGGCGGGAUAGCGCCAACGUUCUCAACUAUGACACGCAAAUCGUGUGCUCCGUUGAAUGGAGUUUAUUAUG [A24U A30G A64G C87G A122U C125U C149U], not above -4.2.
As for GGAUCUUCUCGAUCUAACAAAAAAGACAAAUCUGCCACAACGCUUGAGAGCGUCUUCGGAUCCAGAGGCGGCAGCCUUCGGUGGCGCGAUAGCGGCAACGUUCUCAACUAUGACACGCAAAACGCGUGCUACGUUGAAUGGUGUUUAUAAUG [A41C A52G G62C C95G C131A A142U C149A], the figure is not above -4.2; as for GGAUCUUCUCGAUCUAACAAAAAAGACAAAUCUGCCACAAAGCUUGAGAGCAUCUUCGGAUUCAGAGGCGGCAGCCUUCGGUGGCGCGAUAGCGCCAACGUACUCAACUAUGACACGCAAAACGCGUGCUCCGUUGAAUGGAGUUUAUCAUG [G62U U102A], -1.64.
As for GGAUCUUCUCGAUCUAACAAAUAUGACAAAUCUGCCACAAAGCUUGAGAGCAUCUUCCGAUGCAGAGGCGGCAGCCUUCGGUGGCGCGUUAGCGCCAACGUUCUCAACUAUGACACGCAAAACGCGUGCUCCGUUGAAUGGACUUUAUCAUG [A22U A24U G58C A89U G143C], the “polymerase ribozyme fitness (log ratio)” value is -2.7.
As for GGAUCUUCUCGAUCUAACAAAAAAGACAAAUAUGCCACAACGCUUGAGAGCAUCUUCGGAUGCAGCGGCGGCAGCCUUCGGUGGCGCGAUAGCGUCAAGGUUCUCAACUAUGACACUCAAAACGCGUGCUCCGUUGAAUGGAGUUUAUCCUG [C32A A41C A66C C95U C99G G117U A150C], the figure is not above -4.2.
For GGAUCUUCACGAUCUAACAAAAAAGACAAAUCUGCCACAAAGCUUGAGAGCAUCUUCGGAUGCAGAGGCGGCAGCCUUCGGUGGAGCGACAGCGCCAACGUUCACAACUAUGACACGCAAAACGCGGGCUCCGUUGAAUAGAGUUUAUCAUG [U9A C85A U90C U104A U127G G140A], the “polymerase ribozyme fitness (log ratio)” value is not above -4.2.
As for GGAUCUUCUCGAUCUAACAAAAAAGACAAAUCUGCCACAAAGCUUGAGAACAUCUUCGGAUGCAGAGCCGGCAGCCCUCGGGGGCGCGAUACCGCCAACGUUCUCAACUAUGACACGCAAAACGCGUGCUCCGUUGAAUGGAGUUUAUCAUG [G50A G68C U77C U82G G92C], the figure is not above -4.2; as for GGAUCUUCUCGAUCUAACUAAAAAGAUAAAUCUGCAACAAACCUUGAGAGCAUCUUCGGAUGCAGAGGCGGCAGCCUUCGGUGGCACGAUAGCGCCAACCUUCUCAACUAUGACACGGAAAACGCGUGCUCCGUUGAAUGGAGUUUAUCAUG [A19U C27U C36A G42C G86A G100C C118G], not above -4.2.
For GGAUCUUCUCGAUCUAACAAUAAAGACAAAUCUGCCACAAAGCUUGAGAGCAUCUUUGGAUGCAGAGGCGGCAGCCUUCGGUGGCGCGAUAGGGCCAACGUUCUCAACUAUGACACGCAAAACGCGUGCUCCGUUGAAUGGAGUUUAUCAUG [A21U C57U C93G], the “polymerase ribozyme fitness (log ratio)” value is -3.29.
The value for GGAUCUUCUCGAUCUAACAAAAAAGACAAAUCUGCCACAAAGCUUGAAAGCAUCUUCGGAUGCAGAGGCGGCAGCCUUCGGUGGCGCGAUAGCGCCAACGGUCUCAACUAUGACACGCAAAACGCGUGCUCCGUUGAAUGGAGUUUAUCAUG [G48A U101G] was -2.26; that for GGAUCUCCUCGAUCUAAGAAAAAAGACAAAUCUGCCACAAAGCUUGAGAGCAUCUUCGGAUGCAGAGGCGGCAGCCUUCGGUGGCACGAUAGCGCCAACGUUCUCAACUAUGACACGCAAAACGCGUGCUCCGUUGAAUGGAGUUUAACAUG [U7C C18G G86A U148A] was -4.2; that for GGAUCUUCUCGAUCUAACAAAAAAGACAAAUCUGCCACAAAGCUUGAGAGCAUCUUCGGAUGCAGAGGCGGCAGCCUUCGGUGGCGCGAUUGCGCCAACGUUCUCAACGAUGACACGCAAAACGCGUGCUCCGUUGAAUGUAGUUUAUCAUG [A91U U109G G141U] was not above -4.2.
As for GGAUCUUCUCGAUCUAGCAAAAAAGACAAAUCUGACACAAAGCUUGAGAGCAUCUUCGGAUGCAGACGCGGCAGCCUUCGGUGGCGCGAUAGCGCUAACGUUCUCAACUAUGAUAUGCAAAACGCGUGCUCCGUUGAAUGGAGUUUAUCAUG [A17G C35A G67C C96U C114U C116U], the figure is not above -4.2; as for GGAUCUUCUCGAUCUAACAAAAAAGACAAAUCUGCCACAAAGCUUGAGAGCGUCUUCGGAUGCAGAGGCGGCAGCCUUCGGUGGCGCGAUAGCGCCAACUUUCUCUACUAUGACACGCAAAACGCGUGCUCCGUUGAAUGGAGUUUAUCAUG [A52G G100U A106U], not above -4.2; as for GGAUCUUCUCGAUCUAACAAAAAAGACAAAUCUGCCACAAAGCUUGAGAGCAUCUUCGGAUGCAGAGACGGCAGCCUUCGGUGGCGCGAUAGCGCCAACGUUCUCAACUAUGACACGCAAAAUGCGUGCUCCGUUGAAUGGAGUUUAUCAUG [G68A C123U], -3.89.
The value for GGAUCUUCUCGAUCUGACAAAAAAGACAAAUCUGCCACAAAGCUUGAGAGCAUUUUCGGAUGCAGAGGCGGCAGCCUUCGGUGGCGCGAUAGCGCCAACGUUCUCAACUAUGACACGCAAAACGCGUGCUCCGUUGAAUGGAGUUUAUCAUG [A16G C54U] was -0.601.
